This note sets out measurements from publication PMC9425029, “Secretagogin is a Ca^2+-dependent stress-responsive chaperone that may also play a role in aggregation-based proteinopathies” (The Journal of Biological Chemistry, 2022).

This data set concerns the molecule itself. The data set can be described thus: SAXS; oxidizing conditions (100 μM H2O2), SCGN about 5-15 mg/ml, without or with 8 mM Ca2+; 50 mM Tris pH 7.5, 100 mM KCl.

B1: Secretagogin (mouse SCGN) (natural protein, UniProt Q91WD9 1-276, looked up)
chain: MDNARRKTPARLDAACFWQIWQRFDKEEKGYIRETELDAFFDHLLAKSGTEDTLMEENVQKVKEQLMTSHNVSKEGRILMKELASMFLSEDENFLLFFRLETPLDNSVEFMQIWRKYDADSSGFISAAELCNFLRDLFLHHKKNISEAELEEYTSTMMKIFDKNKDGRLDLNDLARILALQENFLLQFKMDASSTEERKRDFEKIFAHYDVSKTGALEGPEVDGFVKDMMELVQPSISGVDLDKFREILLRHCDVNKDGKIQKSELALCLGLKINP
notes: secretagogin, mouse, cloned in pET21b; Used Ca2+-free (apo) or with Ca2+ (holo); the assays tell them apart; also called apo-SCGN; holo-SCGN; source: E. coli BL21-DE3 (pET21b), purified (Ni-NTA-Sepharose, size-exclusion chromatography), decalcified with EDTA
Take B1: the binding result is on record as “binds”.
